B1: PAICS (protein, UniProt P22234 2-425, looked up)
Bifunctional …: ATAEVLNIGKKLYEGKTKEVYELLDSPGKVLLQSKDQITAGNAARKNHLEGKAAISNKITSCIFQLLQEAGIKTAFTRKCGETAFIAPQCEMIPIEWVCRRIATGSFLKRNPGVKEGYKFYPPKVELFFKDDANNDPQWSEEQLIAAKFCFAGLLIGQTEVDIMSHATQAIFEILEKSWLPQNCTLVDMKIEFGVDVTTKEIVLADVIDNDSWRLWPSGDRSQQKDKQSYRDLKEVTPEGLQMVKKNFEWVAERVELLLKSESQCRVVVLMGSTSDLGHCEKIKKACGNFGIPCELRVTSAHKGPDETLRIKAEYEGDGIPTVFVAVAGRSNGLGPVMSGNTAYPVISCPPLTPDWGVQDVWSSLRLPSGLGCSTVLSPEGSAQFAAQIFGLSNHLVWSKLRASILNTWISLKQADKKIRECNL
B2: XPC (protein, UniProt Q01831 2-940, looked up)
DNA repair protein …: ARKRAAGGEPRGRELRSQKSKAKSKARREEEEEDAFEDEKPPKKSLLSKVSQGKRKRGCSHPGGSADGPAKKKVAKVTVKSENLKVIKDEALSDGDDLRDFPSDLKKAHHLKRGATMNEDSNEEEEESENDWEEVEELSEPVLGDVRESTAFSRSLLPVKPVEIEIETPEQAKTRERSEKIKLEFETYLRRAMKRFNKGVHEDTHKVHLLCLLANGFYRNNICSQPDLHAIGLSIIPARFTRVLPRDVDTYYLSNLVKWFIGTFTVNAELSASEQDNLQTTLERRFAIYSARDDEELVHIFLLILRALQLLTRLVLSLQPIPLKSATAKGKKPSKERLTADPGGSSETSSQVLENHTKPKTSKGTKQEETFAKGTCRPSAKGKRNKGGRKKRSKPSSSEEDEGPGDKQEKATQRRPHGRERRVASRVSYKEESGSDEAGSGSDFELSSGEASDPSDEDSEPGPPKQRKAPAPQRTKAGSKSASRTHRGSHRKDPSLPAASSSSSSSKRGKKMCSDGEKAEKRSIAGIDQWLEVFCEQEEKWVCVDCVHGVVGQPLTCYKYATKPMTYVVGIDSDGWVRDVTQRYDPVWMTVTRKCRVDAEWWAETLRPYQSPFMDREKKEDLEFQAKHMDQPLPTAIGLYKNHPLYALKRHLLKYEAIYPETAAILGYCRGEAVYSRDCVHTLHSRDTWLKKARVVRLGEVPYKMVKGFSNRARKARLAEPQLREENDLGLFGYWQTEEYQPPVAVDGKVPRNEFGNVYLFLPSMMPIGCVQLNLPNLHRVARKLDIDCVQAITGFDFHGGYSHPVTDGYIVCEEFKDVLLTAWENEQAVIERKEKEKKEKRALGNWKLLAKGLLIRERLKRRYGPKSEAAAPHTDAGGGLSSDEEEGTSSQAEAARILAASWPQNREDEEKQKLKGGPKKTKREKKAAASHLFPFEQL
B3: MARS (protein, UniProt P56192 1-900, looked up)
Methionine--tRNA ligase, …: MRLFVSDGVPGCLPVLAAAGRARGRAEVLISTVGPEDCVVPFLTRPKVPVLQLDSGNYLFSTSAICRYFFLLSGWEQDDLTNQWLEWEATELQPALSAALYYLVVQGKKGEDVLGSVRRALTHIDHSLSRQNCPFLAGETESLADIVLWGALYPLLQDPAYLPEELSALHSWFQTLSTQEPCQRAAETVLKQQGVLALRPYLQKQPQPSPAEGRAVTNEPEEEELATLSEEEIAMAVTAWEKGLESLPPLRPQQNPVLPVAGERNVLITSALPYVNNVPHLGNIIGCVLSADVFARYSRLRQWNTLYLCGTDEYGTATETKALEEGLTPQEICDKYHIIHADIYRWFNISFDIFGRTTTPQQTKITQDIFQQLLKRGFVLQDTVEQLRCEHCARFLADRFVEGVCPFCGYEEARGDQCDKCGKLINAVELKKPQCKVCRSCPVVQSSQHLFLDLPKLEKRLEEWLGRTLPGSDWTPNAQFITRSWLRDGLKPRCITRDLKWGTPVPLEGFEDKVFYVWFDATIGYLSITANYTDQWERWWKNPEQVDLYQFMAKDNVPFHSLVFPCSALGAEDNYTLVSHLIATEYLNYEDGKFSKSRGVGVFGDMAQDTGIPADIWRFYLLYIRPEGQDSAFSWTDLLLKNNSELLNNLGNFINRAGMFVSKFFGGYVPEMVLTPDDQRLLAHVTLELQHYHQLLEKVRIRDALRSILTISRHGNQYIQVNEPWKRIKGSEADRQRAGTVTGLAVNIAALLSVMLQPYMPTVSATIQAQLQLPPPACSILLTNFLCTLPAGHQIGTVSPLFQKLENDQIESLRQRFGGGQAKTSPKPAVVETVTTAKPQQIQALMDEVTKQGNIVRELKAQKADKNEVAAEVAKLLDLKKQLAVAEGKPPEAPKGKKKK
B4: DNAJC9 (protein, UniProt Q8WXX5 1-260, looked up)
DnaJ homolog subfamily C …: MGLLDLCEEVFGTADLYRVLGVRREASDGEVRRGYHKVSLQVHPDRVGEGDKEDATRRFQILGKVYSVLSDREQRAVYDEQGTVDEDSPVLTQDRDWEAYWRLLFKKISLEDIQAFEKTYKGSEEELADIKQAYLDFKGDMDQIMESVLCVQYTEEPRIRNIIQQAIDAGEVPSYNAFVKESKQKMNARKRRAQEEAKEAEMSRKELGLDEGVDSLKAAIQSRQKDRQKEMDNFLAQMEAKYCKSSKGGGKKSALKKEKK

Tests used:
G9a and GLP = target: T1, G9a and GLP (Homo sapiens, UniProt Q96KQ7+Q9H9B1); test: Triple SILAC pull-down after UNC0638 treatment of 293T cells, DMSO/UNC0638 ratio of protein captured by 3×MBT; format: cell-based; parameters: endogenous in cells; host or cells: HEK 293T; details: all values in log base 2; for Relative to UNC0638 UNC Heavy / Relative to UNC0638 UNC Light: SILAC ratio DMSO relative to UNC0638, pull-down with 3xMBT; for Relative to UNC0638 UNC Heavy: UNC0638 in heavy SILAC media; for Relative to UNC0638 UNC Light: UNC0638 in light SILAC media; for Relative to UNC0638 Average: average of UNC Light and UNC Heavy experiments;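 on all read-outs here: mass spectrometry (Q-Exactive) SILAC quantitation, DMSO/UNC0638 ratio computed after subtracting 3×MBTD355N mutant pull-down background, only proteins with at least twofold 3×MBT over mutant signal considered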
T1 sequence (Q96KQ7 2-1210 limits assumed): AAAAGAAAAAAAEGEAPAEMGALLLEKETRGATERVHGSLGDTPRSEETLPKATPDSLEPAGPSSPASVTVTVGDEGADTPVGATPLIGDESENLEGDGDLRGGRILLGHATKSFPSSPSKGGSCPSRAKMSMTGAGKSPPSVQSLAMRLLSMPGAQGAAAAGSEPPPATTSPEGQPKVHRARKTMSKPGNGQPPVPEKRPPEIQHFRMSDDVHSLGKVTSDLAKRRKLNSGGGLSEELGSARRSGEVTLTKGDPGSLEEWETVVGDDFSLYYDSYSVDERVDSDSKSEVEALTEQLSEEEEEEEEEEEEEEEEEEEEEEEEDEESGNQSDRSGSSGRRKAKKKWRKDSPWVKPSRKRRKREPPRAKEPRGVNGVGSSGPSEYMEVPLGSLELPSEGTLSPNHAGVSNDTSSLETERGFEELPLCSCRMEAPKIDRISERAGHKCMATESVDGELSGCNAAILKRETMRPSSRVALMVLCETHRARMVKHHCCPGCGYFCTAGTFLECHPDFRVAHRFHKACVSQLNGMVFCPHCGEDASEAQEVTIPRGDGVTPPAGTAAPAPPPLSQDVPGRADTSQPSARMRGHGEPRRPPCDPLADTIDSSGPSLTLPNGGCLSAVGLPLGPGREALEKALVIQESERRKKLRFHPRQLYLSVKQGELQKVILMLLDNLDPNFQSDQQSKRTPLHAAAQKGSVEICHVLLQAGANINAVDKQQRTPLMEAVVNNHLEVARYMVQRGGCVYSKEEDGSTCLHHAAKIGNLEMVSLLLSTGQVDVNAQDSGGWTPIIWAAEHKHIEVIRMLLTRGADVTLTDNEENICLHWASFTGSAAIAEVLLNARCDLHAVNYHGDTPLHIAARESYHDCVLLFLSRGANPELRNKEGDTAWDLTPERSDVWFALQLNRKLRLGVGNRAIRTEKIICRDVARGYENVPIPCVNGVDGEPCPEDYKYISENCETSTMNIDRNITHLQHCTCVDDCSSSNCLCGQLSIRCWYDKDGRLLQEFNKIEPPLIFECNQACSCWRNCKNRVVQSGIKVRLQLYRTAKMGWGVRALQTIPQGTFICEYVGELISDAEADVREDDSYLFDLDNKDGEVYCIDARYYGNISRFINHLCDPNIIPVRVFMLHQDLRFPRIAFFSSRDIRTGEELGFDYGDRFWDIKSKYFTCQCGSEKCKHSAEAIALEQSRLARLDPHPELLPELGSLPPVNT
T1 sequence (Q9H9B1 2-1298 limits assumed): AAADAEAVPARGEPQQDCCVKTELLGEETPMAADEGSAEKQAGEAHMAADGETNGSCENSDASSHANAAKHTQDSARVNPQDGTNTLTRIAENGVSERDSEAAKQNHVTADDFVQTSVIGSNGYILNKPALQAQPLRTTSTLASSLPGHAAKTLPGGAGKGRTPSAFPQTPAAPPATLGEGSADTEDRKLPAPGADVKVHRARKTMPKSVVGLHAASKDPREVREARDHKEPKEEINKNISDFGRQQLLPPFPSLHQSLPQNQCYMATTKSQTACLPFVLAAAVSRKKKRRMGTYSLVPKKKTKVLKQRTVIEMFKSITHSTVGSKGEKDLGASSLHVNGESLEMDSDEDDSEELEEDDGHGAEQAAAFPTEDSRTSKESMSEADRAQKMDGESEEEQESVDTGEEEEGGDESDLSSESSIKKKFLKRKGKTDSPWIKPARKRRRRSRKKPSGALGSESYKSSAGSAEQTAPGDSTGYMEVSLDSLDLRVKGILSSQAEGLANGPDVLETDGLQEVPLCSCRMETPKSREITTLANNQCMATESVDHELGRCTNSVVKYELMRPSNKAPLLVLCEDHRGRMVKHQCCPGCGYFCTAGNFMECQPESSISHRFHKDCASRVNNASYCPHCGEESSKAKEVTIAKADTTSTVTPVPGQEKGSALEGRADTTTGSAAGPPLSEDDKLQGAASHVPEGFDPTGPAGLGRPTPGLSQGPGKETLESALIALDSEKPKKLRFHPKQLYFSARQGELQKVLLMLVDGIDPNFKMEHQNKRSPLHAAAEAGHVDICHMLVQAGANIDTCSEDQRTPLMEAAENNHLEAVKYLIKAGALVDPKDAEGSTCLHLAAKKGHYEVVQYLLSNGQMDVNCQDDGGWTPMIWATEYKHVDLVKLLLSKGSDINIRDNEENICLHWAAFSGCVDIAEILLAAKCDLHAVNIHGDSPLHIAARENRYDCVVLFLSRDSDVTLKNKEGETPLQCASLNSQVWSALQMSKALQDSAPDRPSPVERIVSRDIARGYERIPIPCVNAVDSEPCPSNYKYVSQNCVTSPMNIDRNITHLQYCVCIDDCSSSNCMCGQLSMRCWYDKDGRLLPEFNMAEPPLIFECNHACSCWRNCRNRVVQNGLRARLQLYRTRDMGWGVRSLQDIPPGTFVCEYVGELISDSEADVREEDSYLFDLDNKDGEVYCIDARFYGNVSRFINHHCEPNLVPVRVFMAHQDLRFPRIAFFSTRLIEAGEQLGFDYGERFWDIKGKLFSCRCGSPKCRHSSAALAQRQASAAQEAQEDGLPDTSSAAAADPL

3×MBT domain of L3MBTL1 = test: Triple SILAC pull-down, 3xMBT/3xMBTD355N ratio (cytoplasmic, nuclear and chromatin fractions of 293T cells); format: binding, human; details: SILAC ratio 3xMBT vs 3xMBTD355N pull-down, 293T cells, all values in log base 2; for 3xMBT/D355N UNC Heavy: experiment with UNC0638 in heavy SILAC media; for 3xMBT/D355N UNC Light: experiment with UNC0638 in light SILAC media;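 on all read-outs here: proteins quantified with MaxQuant, requiring at least two unique peptides and quantification in both label directions, normalized to the mean of proteins from a digested loading control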

Molecule	Relative to UNC0638 UNC Heavy (G9a and GLP) [log base 2]	Relative to UNC0638 UNC Light (G9a and GLP) [log base 2]	Relative to UNC0638 Average (G9a and GLP) [log base 2]	3xMBT/D355N UNC Heavy (3×MBT domain of L3MBTL1) [log base 2]	3xMBT/D355N UNC Light (3×MBT domain of L3MBTL1) [log base 2]
B1	−0.03	0.05	0.01	1.12	1.04
B2	0.03	0.03	0.03	2.62	3.99
B3	0.15	−0.08	0.03	1.87	1.56
B4	0.09	−0.02	0.04	2.56	1.85
